Data taken from patent publication US20180155451A1 (published 2018).

Biological target: T1, FcγRIIIa extracellular domain with C-terminal His tag (human, UniProt P08637 17-208)
T1 construct: extracellular domain; also called FcgRIIIa; 3a
Assay: SPR, relative to GpH7-A5/GpH7-B3/GpL16-k0

T1 sequence (P08637 17-208): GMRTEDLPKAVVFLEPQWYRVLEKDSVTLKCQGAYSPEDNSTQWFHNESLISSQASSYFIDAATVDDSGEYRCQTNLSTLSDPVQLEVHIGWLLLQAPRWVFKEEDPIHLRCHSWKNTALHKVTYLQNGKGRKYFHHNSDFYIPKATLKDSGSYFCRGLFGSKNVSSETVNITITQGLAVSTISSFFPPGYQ

Row | Binder | He/Con_3a
1 | GpH7-A5/GpH7-B3 variant K334_03V/GpL16-k0 (antibody, human IgG1, kappa, heterodimerized IgG1, mutation in one H chain only; also called He Ab) heavy 1: not shown heavy 2: not shown light: DIVMTQSPLSLPVTPGEPASISCQASESLVHSNRNTYLHWYLQKPGQSPQLLIYKVSNRFSGVPDRFSGSGSGTDFTLKISRVEAEDVGVYYCSQNTHVPPTFGQGTKVEIERTVAAPSVFIFPPSDEQLKSGTASVVCLLNNFYPREAKVQWKVDNALQSGNSQESVTEQDSKDSTYSLSSTLTLSKADYEKHKVYACEVTHQGLSSPVTKSFNRGEC | 150 % of control (=100)
2 | GpH7-A5/GpH7-B3 variant K334_16H/GpL16-k0 (antibody, human IgG1, kappa, heterodimerized IgG1, mutation in one H chain only; also called He Ab) heavy 1: not shown heavy 2: not shown light: DIVMTQSPLSLPVTPGEPASISCQASESLVHSNRNTYLHWYLQKPGQSPQLLIYKVSNRFSGVPDRFSGSGSGTDFTLKISRVEAEDVGVYYCSQNTHVPPTFGQGTKVEIERTVAAPSVFIFPPSDEQLKSGTASVVCLLNNFYPREAKVQWKVDNALQSGNSQESVTEQDSKDSTYSLSSTLTLSKADYEKHKVYACEVTHQGLSSPVTKSFNRGEC | 134 % of control (=100)
3 | GpH7-A5/GpH7-B3 variant K326_14T/GpL16-k0 (antibody, human IgG1, kappa, heterodimerized IgG1, mutation in one H chain only; also called He Ab) heavy 1: not shown heavy 2: not shown light: DIVMTQSPLSLPVTPGEPASISCQASESLVHSNRNTYLHWYLQKPGQSPQLLIYKVSNRFSGVPDRFSGSGSGTDFTLKISRVEAEDVGVYYCSQNTHVPPTFGQGTKVEIERTVAAPSVFIFPPSDEQLKSGTASVVCLLNNFYPREAKVQWKVDNALQSGNSQESVTEQDSKDSTYSLSSTLTLSKADYEKHKVYACEVTHQGLSSPVTKSFNRGEC | 126 % of control (=100)
4 | GpH7-A5/GpH7-B3 variant K334_09D/GpL16-k0 (antibody, human IgG1, kappa, heterodimerized IgG1, mutation in one H chain only; also called He Ab) heavy 1: not shown heavy 2: not shown light: DIVMTQSPLSLPVTPGEPASISCQASESLVHSNRNTYLHWYLQKPGQSPQLLIYKVSNRFSGVPDRFSGSGSGTDFTLKISRVEAEDVGVYYCSQNTHVPPTFGQGTKVEIERTVAAPSVFIFPPSDEQLKSGTASVVCLLNNFYPREAKVQWKVDNALQSGNSQESVTEQDSKDSTYSLSSTLTLSKADYEKHKVYACEVTHQGLSSPVTKSFNRGEC | 160 % of control (=100)
5 | GpH7-A5/GpH7-B3 variant K334_18N/GpL16-k0 (antibody, human IgG1, kappa, heterodimerized IgG1, mutation in one H chain only; also called He Ab) heavy 1: not shown heavy 2: not shown light: DIVMTQSPLSLPVTPGEPASISCQASESLVHSNRNTYLHWYLQKPGQSPQLLIYKVSNRFSGVPDRFSGSGSGTDFTLKISRVEAEDVGVYYCSQNTHVPPTFGQGTKVEIERTVAAPSVFIFPPSDEQLKSGTASVVCLLNNFYPREAKVQWKVDNALQSGNSQESVTEQDSKDSTYSLSSTLTLSKADYEKHKVYACEVTHQGLSSPVTKSFNRGEC | 136 % of control (=100)
6 | GpH7-A5/GpH7-B3 variant Q295_02A/GpL16-k0 (antibody, human IgG1, kappa, heterodimerized IgG1, mutation in one H chain only; also called He Ab) heavy 1: not shown heavy 2: not shown light: DIVMTQSPLSLPVTPGEPASISCQASESLVHSNRNTYLHWYLQKPGQSPQLLIYKVSNRFSGVPDRFSGSGSGTDFTLKISRVEAEDVGVYYCSQNTHVPPTFGQGTKVEIERTVAAPSVFIFPPSDEQLKSGTASVVCLLNNFYPREAKVQWKVDNALQSGNSQESVTEQDSKDSTYSLSSTLTLSKADYEKHKVYACEVTHQGLSSPVTKSFNRGEC | 106 % of control (=100)
7 | GpH7-A5/GpH7-B3 variant K326_15Y/GpL16-k0 (antibody, human IgG1, kappa, heterodimerized IgG1, mutation in one H chain only; also called He Ab) heavy 1: not shown heavy 2: not shown light: DIVMTQSPLSLPVTPGEPASISCQASESLVHSNRNTYLHWYLQKPGQSPQLLIYKVSNRFSGVPDRFSGSGSGTDFTLKISRVEAEDVGVYYCSQNTHVPPTFGQGTKVEIERTVAAPSVFIFPPSDEQLKSGTASVVCLLNNFYPREAKVQWKVDNALQSGNSQESVTEQDSKDSTYSLSSTLTLSKADYEKHKVYACEVTHQGLSSPVTKSFNRGEC | 112 % of control (=100)
8 | GpH7-A5/GpH7-B3 variant K334_02A/GpL16-k0 (antibody, human IgG1, kappa, heterodimerized IgG1, mutation in one H chain only; also called He Ab) heavy 1: not shown heavy 2: not shown light: DIVMTQSPLSLPVTPGEPASISCQASESLVHSNRNTYLHWYLQKPGQSPQLLIYKVSNRFSGVPDRFSGSGSGTDFTLKISRVEAEDVGVYYCSQNTHVPPTFGQGTKVEIERTVAAPSVFIFPPSDEQLKSGTASVVCLLNNFYPREAKVQWKVDNALQSGNSQESVTEQDSKDSTYSLSSTLTLSKADYEKHKVYACEVTHQGLSSPVTKSFNRGEC | 147 % of control (=100)
9 | GpH7-A5/GpH7-B3 variant K334_08L/GpL16-k0 (antibody, human IgG1, kappa, heterodimerized IgG1, mutation in one H chain only; also called He Ab) heavy 1: not shown heavy 2: not shown light: DIVMTQSPLSLPVTPGEPASISCQASESLVHSNRNTYLHWYLQKPGQSPQLLIYKVSNRFSGVPDRFSGSGSGTDFTLKISRVEAEDVGVYYCSQNTHVPPTFGQGTKVEIERTVAAPSVFIFPPSDEQLKSGTASVVCLLNNFYPREAKVQWKVDNALQSGNSQESVTEQDSKDSTYSLSSTLTLSKADYEKHKVYACEVTHQGLSSPVTKSFNRGEC | 143 % of control (=100)
10 | GpH7-A5/GpH7-B3 variant K334_07I/GpL16-k0 (antibody, human IgG1, kappa, heterodimerized IgG1, mutation in one H chain only; also called He Ab) heavy 1: not shown heavy 2: not shown light: DIVMTQSPLSLPVTPGEPASISCQASESLVHSNRNTYLHWYLQKPGQSPQLLIYKVSNRFSGVPDRFSGSGSGTDFTLKISRVEAEDVGVYYCSQNTHVPPTFGQGTKVEIERTVAAPSVFIFPPSDEQLKSGTASVVCLLNNFYPREAKVQWKVDNALQSGNSQESVTEQDSKDSTYSLSSTLTLSKADYEKHKVYACEVTHQGLSSPVTKSFNRGEC | 151 % of control (=100)
11 | GpH7-A5/GpH7-B3 variant Q295_10E/GpL16-k0 (antibody, human IgG1, kappa, heterodimerized IgG1, mutation in one H chain only; also called He Ab) heavy 1: not shown heavy 2: not shown light: DIVMTQSPLSLPVTPGEPASISCQASESLVHSNRNTYLHWYLQKPGQSPQLLIYKVSNRFSGVPDRFSGSGSGTDFTLKISRVEAEDVGVYYCSQNTHVPPTFGQGTKVEIERTVAAPSVFIFPPSDEQLKSGTASVVCLLNNFYPREAKVQWKVDNALQSGNSQESVTEQDSKDSTYSLSSTLTLSKADYEKHKVYACEVTHQGLSSPVTKSFNRGEC | 100 % of control (=100)
